The results in this text go back to paper PMC11516162, “A Novel Antigen Design Strategy to Isolate Single‐Domain Antibodies that Target Human Nav1.7 and Reduce Pain in Animal Models” (Advanced Science, 2024).

The target of test [1] is mouse Nav1.7 (mouse (endogenous in CD-1 mice)) (UniProt Q62205).
The target of test [2] is Rat FC5-DIE3IR (llama | rat). In words: SPR; Biacore T200, 25 °C, HBS-EP+ (10 mM HEPES pH 7.4, 150 mM NaCl, 3 mM EDTA, 0.05% P20); FC5-DIE3IR (human, mouse, rat) and FC5 amine coupled (300-400 RU) on CM5; SEC-purified monomeric VHH DI-D flowed over at 312 nM to 5 µM, single cycle kinetics; KD by steady state analysis.
Test [3] addresses Mouse FC5-DIE3IR (llama | mouse). The test is described as above.
The target in test [4] is T1, human FC5‐DIE3IR (Homo sapiens, chimera, glycosylated (about up to 50%)).
T1 construct: llama VHH FC5 from its N-terminus to residue 101 (three CDR3 residues kept on the N-terminal side of the graft); human Nav1.7 alpha subunit, 70 residues of extracellular loop 3 of domain DI (DIE3IR), put in place of Ser102-Leu107 of the CDR3 of FC5; llama VHH FC5 from residue 108 to its C-terminus (four CDR3 residues kept on the C-terminal side of the graft); Two disulfide bonds in the grafted …
Described as above.

For test [5], the target named is rat, mouse and human FC5‐DIE3IR. In words: SPR; Biacore T200, 25 °C, HBS‐EP+ (10 mM HEPES pH 7.4, 150 mM NaCl, 3 mM EDTA, 0.05% P20); FC5‐DIE3IR and FC5 amine coupled (300–400 RU) on CM5; VHH DI‐D monomer fractions flowed at 312 nM to 5 µM, single cycle kinetics; KD by steady state analysis.
Test [6] concerns the target Mouse FC5-DIE3IR (llama | mouse). In words: SPR; Biacore T200, 25 °C, HBS-EP+ (10 mM HEPES pH 7.4, 150 mM NaCl, 3 mM EDTA, 0.05% P20); FC5-DIE3IR (human, mouse, rat) and FC5 amine coupled (300-400 RU) on CM5; SEC-purified monomeric VHH DI-D flowed over at 312 nM to 5 µM, single cycle kinetics; KD by steady state analysis. The source holds these as a separate data set.
The target in test [7] is T1, human FC5‐DIE3IR. The test is described as above. This is another data set of the same source.
The target in test [8] is T2, rat FC5‐DIE3IR (Rattus norvegicus, UniProt O08562, chimera).
T2 construct: llama VHH FC5 N-terminal part, as the first part of m2; rat Nav1.7 alpha subunit, the stretch equivalent to the human DIE3IR domain; llama VHH FC5 C-terminal part, as the last part of m2; source: cloned as the human one (pTT5); SEC purified (Superdex 75) for SPR
In words: SPR; Biacore T200, 25 °C, HBS‐EP+ (10 mM HEPES pH 7.4, 150 mM NaCl, 3 mM EDTA, 0.05% P20); FC5‐DIE3IR and FC5 amine coupled (300–400 RU) on CM5; VHH DI‐D monomer fractions flowed at 312 nM to 5 µM, single cycle kinetics; KD by steady state analysis. As to conditions: both partners purified.

The target of test [9] is T3, mouse FC5‐DIE3IR (Mus musculus, UniProt Q62205, chimera).
T3 construct: llama VHH FC5 N-terminal part, as the first part of m2; mouse Nav1.7 alpha subunit, the stretch equivalent to the human DIE3IR domain; llama VHH FC5 C-terminal part, as the last part of m2; source: cloned as the human one (pTT5); SEC purified (Superdex 75) for SPR
Described as above. The settings on record: both partners purified.

Test [10] addresses T1, human FC5‐DIE3IR. The test is described as above. The settings on record: both partners purified.
Test [11] has as its target Rat FC5-DIE3IR (llama | rat). The test can be described thus: SPR; Biacore T200, 25 °C, HBS-EP+ (10 mM HEPES pH 7.4, 150 mM NaCl, 3 mM EDTA, 0.05% P20); FC5-DIE3IR (human, mouse, rat) and FC5 amine coupled (300-400 RU) on CM5; SEC-purified monomeric VHH DI-D flowed over at 312 nM to 5 µM, single cycle kinetics; KD by steady state analysis. The source holds these as a separate data set. On the technique in general: Surface plasmon resonance follows binding to a sensor surface in real time, without labels.

Test [12] addresses Mouse FC5-DIE3IR (llama | mouse). The test is described as above. The source holds these as a separate data set.
Test [13] deals with T1, human FC5‐DIE3IR. Described as above. This is another data set of the same source.

Read-outs that look alike come from different tables or passages of the source.

B1: VHH DI‐D (VHH)
VHH: QVKLEESGGGLVQPGGSLKLSCVASGFAFSSAPMDWVRKAPGKDVEWLSTIESDQDHTIYYANSVKGRFTISRDDVQNILYLQMNDLKIEDTATYYCQKRGEKKTRGQGTQVTVSS
notes: CDR3 of VHH DI-D as printed in the discussion; Isolated from a naive llama, alpaca and camel phage library (LAC-M) by panning on FC5-DIE3IR; source: E. coli, purified by IMAC (gene synthesized and cloned by GenScript; pSJF2 expression vector); SEC-purified monomer fractions for SPR
In turn, B1 came in with a time mice spend in pain behaviors, mouse OD1 model, VHH DI‐D (50 µg) pre‐mixed 30 min with FC5‐DIE3IR (200 µg): no reduction in [1] of 312 s. For the same molecule, the dissociation constant (Kd) (commonly a measure of binding affinity in units of concentration) in [2] was 1590 nM; in [3] it was 1700 nM; in [4], 1720 nM; in [5], 1560 to 1720 nM; in test [6], 1680 nM; in test [7], 1710 nM. Moreover, the results for the Kd in [11], in test [12] and in test [13] were 1560 nM, 1660 nM and 1700 nM, respectively. Besides, the binding result in test [8], in test [9] and in test [10] was “binds” each time.
